In the supplement of paper PMC10567573:

B1: BTBD1 (parent)
chain: FVLGKGRGAAAAGGPQRIPAHRFV

Variants of: B1
Assay: protein stability index of a GFP-peptide fusion (GPS, HEK-293T) (PSI 1-6); higher = more stable
Conditions: c terminus: a fixed tail appended
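Further: lentivirally expressed fusions sorted by FACS into six bins by GFP to DsRed ratio, PSI derived from sequencing read proportions per bin multiplied by bin number.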

**Q.** Which protein stability index does the source give for FVLGKGRGAAAAGGPQRIPMHRFV [A20M] here?
**A.** 2.09

**Q.** With FLLGKGRGAAAAGGPQRIPAHRFV [V2L] as the variant, how does the protein stability index read?
**A.** 1.97

**Q.** With FVLGKGRGAAAAGGPQRDPAHRFV [I18D] as the variant, how does the protein stability index read?
**A.** 2.16

**Q.** With FVLGKGRGAPAAGGPQRIPAHRFV [A10P] as the variant, how does the protein stability index read?
**A.** 1.95

**Q.** For FVLGKGRGAAAAGGPQRIIAHRFV [P19I], which protein stability index is on record?
**A.** 2.16

**Q.** For FVLGKGRGAAAAGGPQRITAHRFV [P19T], which protein stability index is on record?
**A.** 1.88

**Q.** For FVLGKGRGAAAAGGSQRIPAHRFV [P15S], which protein stability index is on record?
**A.** 1.7

**Q.** Which protein stability index does the source give for FVLGNGRGAAAAGGPQRIPAHRFV [K5N] here?
**A.** 2.04

**Q.** Which protein stability index does the source give for FVLGKGRGAAAAGGNQRIPAHRFV [P15N] here?
**A.** 1.52

**Q.** For FVLGKGRGAAAAGGPARIPAHRFV [Q16A], which protein stability index is on record?
**A.** 1.6

**Q.** Which protein stability index does the source give for FVLGKGRGAAAAGHPQRIPAHRFV [G14H] here?
**A.** 1.87

**Q.** For FVLGKGRGAACAGGPQRIPAHRFV [A11C], which protein stability index is on record?
**A.** 2.71

**Q.** For FVLGKGRGAAAAGGPQRIPASRFV [H21S], which protein stability index is on record?
**A.** 1.56

**Q.** For FVLGKGRGGAAAGGPQRIPAHRFV [A9G], which protein stability index is on record?
**A.** 1.72

**Q.** With FFLGKGRGAAAAGGPQRIPAHRFV [V2F] as the variant, how does the protein stability index read?
**A.** 1.67

**Q.** For FVLGKGRGPAAAGGPQRIPAHRFV [A9P], which protein stability index is on record?
**A.** 1.6

**Q.** For FVLGKGRGAAAAGGPGRIPAHRFV [Q16G], which protein stability index is on record?
**A.** 1.87

**Q.** Which protein stability index does the source give for FVLGKGRGALAAGGPQRIPAHRFV [A10L] here?
**A.** 1.46

**Q.** Which protein stability index does the source give for FVLGKGRPAAAAGGPQRIPAHRFV [G8P] here?
**A.** 1.55

**Q.** Which protein stability index does the source give for FVLGKGRGAAAAGGPQMIPAHRFV [R17M] here?
**A.** 1.56

**Q.** Which protein stability index does the source give for FVLGKGRGAAAAGGPQRIPFHRFV [A20F] here?
**A.** 2.32

**Q.** With FVLGKGRGVAAAGGPQRIPAHRFV [A9V] as the variant, how does the protein stability index read?
**A.** 2.21

**Q.** For FVLGKGRGAAAAGGPQRRPAHRFV [I18R], which protein stability index is on record?
**A.** 1.46

**Q.** With FVLGRGRGAAAAGGPQRIPAHRFV [K5R] as the variant, how does the protein stability index read?
**A.** 2.08

**Q.** Which protein stability index does the source give for FVLGKGRGAAAAGGPQYIPAHRFV [R17Y] here?
**A.** 1.49

**Q.** Which protein stability index does the source give for FVLGKGREAAAAGGPQRIPAHRFV [G8E] here?
**A.** 2.01

**Q.** For IVLGKGRGAAAAGGPQRIPAHRFV [F1I], which protein stability index is on record?
**A.** 1.91

**Q.** For FVLGKGRGAAAEGGPQRIPAHRFV [A12E], which protein stability index is on record?
**A.** 1.84

**Q.** For FVLGKGMGAAAAGGPQRIPAHRFV [R7M], which protein stability index is on record?
**A.** 2.03

**Q.** For FVLGKGRGAAAAGGDQRIPAHRFV [P15D], which protein stability index is on record?
**A.** 1.86

**Q.** For FVLGKGRGAAAAGLPQRIPAHRFV [G14L], which protein stability index is on record?
**A.** 2.15

**Q.** With FCLGKGRGAAAAGGPQRIPAHRFV [V2C] as the variant, how does the protein stability index read?
**A.** 2.18

**Q.** With FVLGKVRGAAAAGGPQRIPAHRFV [G6V] as the variant, how does the protein stability index read?
**A.** 1.69

**Q.** Which protein stability index does the source give for FVLGKGRGAAAAGGPQRIPAHTFV [R22T] here?
**A.** 5.22

**Q.** Which protein stability index does the source give for FVLGKGRGAAALGGPQRIPAHRFV [A12L] here?
**A.** 1.38

**Q.** For FVLGKGRGAAAAGGPQRIPAHRFL [V24L], which protein stability index is on record?
**A.** 1.73

**Q.** With FVLGKGRGAAAAGGEQRIPAHRFV [P15E] as the variant, how does the protein stability index read?
**A.** 1.81

**Q.** Which protein stability index does the source give for FVLGKGRGAAAQGGPQRIPAHRFV [A12Q] here?
**A.** 1.43

**Q.** Which protein stability index does the source give for FVLGKGRGAAAAGGMQRIPAHRFV [P15M] here?
**A.** 2.08

**Q.** With FVLGKGRGAAAAGGPQRIPAHVFV [R22V] as the variant, how does the protein stability index read?
**A.** 2.14

**Q.** Which protein stability index does the source give for TVLGKGRGAAAAGGPQRIPAHRFV [F1T] here?
**A.** 3.32

**Q.** Which protein stability index does the source give for FVLGKGRGADAAGGPQRIPAHRFV [A10D] here?
**A.** 1.64

**Q.** For FVLGKGRGATAAGGPQRIPAHRFV [A10T], which protein stability index is on record?
**A.** 1.91

**Q.** With FVLGKGRGAAMAGGPQRIPAHRFV [A11M] as the variant, how does the protein stability index read?
**A.** 1.73

**Q.** For FVLGKGRGAAAAGGPVRIPAHRFV [Q16V], which protein stability index is on record?
**A.** 2.31

**Q.** Which protein stability index does the source give for FVVGKGRGAAAAGGPQRIPAHRFV [L3V] here?
**A.** 1.61

**Q.** For FVLGKGRGAAAAGGPQRIPAHRFK [V24K], which protein stability index is on record?
**A.** 2.12

**Q.** For FVLGKGRGAAAAGGPSRIPAHRFV [Q16S], which protein stability index is on record?
**A.** 1.9

**Q.** Which protein stability index does the source give for FVLGKGRGAAAAGGPQRIPTHRFV [A20T] here?
**A.** 1.74

**Q.** For FVLGKGRGAAAAGGPQRIPAHRCV [F23C], which protein stability index is on record?
**A.** 1.08

**Q.** With FVLGKYRGAAAAGGPQRIPAHRFV [G6Y] as the variant, how does the protein stability index read?
**A.** 3.51

**Q.** With FVLGKGRGAAAAGRPQRIPAHRFV [G14R] as the variant, how does the protein stability index read?
**A.** 1.04

**Q.** Which protein stability index does the source give for FVLGKGRGACAAGGPQRIPAHRFV [A10C] here?
**A.** 1.36

**Q.** With FVLGKGRGAAAAGGRQRIPAHRFV [P15R] as the variant, how does the protein stability index read?
**A.** 1.99

**Q.** For FQLGKGRGAAAAGGPQRIPAHRFV [V2Q], which protein stability index is on record?
**A.** 3

**Q.** Which protein stability index does the source give for FVLGKGRGAAAAGGPQRIPAHNFV [R22N] here?
**A.** 2.53

**Q.** With FVLGKGRGAAAAGGYQRIPAHRFV [P15Y] as the variant, how does the protein stability index read?
**A.** 1.49

**Q.** For FVLGKGRGAAAAGGPQEIPAHRFV [R17E], which protein stability index is on record?
**A.** 2.13

**Q.** With HVLGKGRGAAAAGGPQRIPAHRFV [F1H] as the variant, how does the protein stability index read?
**A.** 3.4

**Q.** For FVLGHGRGAAAAGGPQRIPAHRFV [K5H], which protein stability index is on record?
**A.** 1.95

**Q.** For FVLGKGRGAAAAGGPQSIPAHRFV [R17S], which protein stability index is on record?
**A.** 1.86

**Q.** With FVLGKGRGAAAAGGPQRIPAHRRV [F23R] as the variant, how does the protein stability index read?
**A.** 1.25

**Q.** For FVLGKGRGAAAAGGPQRIPAHRQV [F23Q], which protein stability index is on record?
**A.** 2.19

**Q.** Which protein stability index does the source give for FVLGKGRGAAAAGGPQRIPAHRNV [F23N] here?
**A.** 1.9

**Q.** For FVLGKGRGAALAGGPQRIPAHRFV [A11L], which protein stability index is on record?
**A.** 1.31

**Q.** Which protein stability index does the source give for FVLGKGRGAAAAGGPTRIPAHRFV [Q16T] here?
**A.** 1.39

**Q.** For FVLGKGRGAAAAGGPQCIPAHRFV [R17C], which protein stability index is on record?
**A.** 1.9

**Q.** For FVLGKHRGAAAAGGPQRIPAHRFV [G6H], which protein stability index is on record?
**A.** 1.67

**Q.** With LVLGKGRGAAAAGGPQRIPAHRFV [F1L] as the variant, how does the protein stability index read?
**A.** 2.51

**Q.** With FVLGKGRGAAVAGGPQRIPAHRFV [A11V] as the variant, how does the protein stability index read?
**A.** 1.28

**Q.** With FVLGKGRGAAAAGGPQRIPADRFV [H21D] as the variant, how does the protein stability index read?
**A.** 2.22

**Q.** For FVLGKGHGAAAAGGPQRIPAHRFV [R7H], which protein stability index is on record?
**A.** 1.7

**Q.** Which protein stability index does the source give for FVLGKGRGAKAAGGPQRIPAHRFV [A10K] here?
**A.** 2.08

**Q.** With FVLWKGRGAAAAGGPQRIPAHRFV [G4W] as the variant, how does the protein stability index read?
**A.** 1.2

**Q.** With FVLGKGRGAAAAFGPQRIPAHRFV [G13F] as the variant, how does the protein stability index read?
**A.** 1.3

**Q.** With FVLGKGRGAAAAGGPQRIPAHRYV [F23Y] as the variant, how does the protein stability index read?
**A.** 1.71

**Q.** For FVLGKGRGAAAKGGPQRIPAHRFV [A12K], which protein stability index is on record?
**A.** 1.82

**Q.** For FVLGKGRGAAAAGGPQRIPAHGFV [R22G], which protein stability index is on record?
**A.** 1.08

**Q.** Which protein stability index does the source give for FVLGKKRGAAAAGGPQRIPAHRFV [G6K] here?
**A.** 1.69
